We go through 1 substance from paper PMC4853763.

What is called stoichiometry N is the number of molecules, sites or subunits per partner or assembly.

The target of the assay is E6/e6ap complex with the wt e6ap(1-16) peptide construct (HPV16 | human) (UniProt P03126). Briefly: ITC. On the technique in general: ITC needs no label: the signal is the heat of the interaction.

The substance “p53 core (DNA binding) domain (from UniProt P04637 94-311) (domain or fragment)” returned a dH of -19.1 kcal/mol and a stoichiometry N of 0.516.
